Reference: publication PMC7980781

Molecular target: T1, Purified 6xHis tagged recombinant FLCN, Q8NFG4
T1 chain: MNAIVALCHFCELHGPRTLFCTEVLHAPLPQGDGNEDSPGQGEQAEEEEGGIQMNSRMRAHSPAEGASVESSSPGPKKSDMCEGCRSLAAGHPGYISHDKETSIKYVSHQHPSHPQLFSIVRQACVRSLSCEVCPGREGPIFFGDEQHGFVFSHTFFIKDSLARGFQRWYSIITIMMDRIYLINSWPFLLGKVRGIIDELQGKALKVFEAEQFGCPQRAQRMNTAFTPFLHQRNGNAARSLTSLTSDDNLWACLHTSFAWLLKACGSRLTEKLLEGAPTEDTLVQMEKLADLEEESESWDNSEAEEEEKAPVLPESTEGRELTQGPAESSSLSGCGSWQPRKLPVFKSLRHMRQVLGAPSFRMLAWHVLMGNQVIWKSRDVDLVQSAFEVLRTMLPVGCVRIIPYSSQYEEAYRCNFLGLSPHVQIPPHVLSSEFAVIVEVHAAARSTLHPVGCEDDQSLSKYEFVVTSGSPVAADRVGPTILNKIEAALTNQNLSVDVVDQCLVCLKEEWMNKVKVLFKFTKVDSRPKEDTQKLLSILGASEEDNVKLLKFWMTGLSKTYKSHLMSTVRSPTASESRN
Test: native gel or EMSA
Conditions: remark: other sources report otherwise

stoichiometry N: 2
B1: Purified 6xHis tagged recombinant FLCN, Q8NFG4 1-579 (natural protein)
chain: T1 chain
